± gives the standard deviation of the averaged measurements.
Assay: total protein half-life in vivo (active degradation + dilution); higher = more stable protein
[1] = E. coli NCM3722 delta-clpP delta-lon delta-hslV, growth: N-lim chemostat, doubling time 6 h
[2] = E. coli NCM3722 delta-clpP, growth: N-lim chemostat, doubling time 6 h
[3] = E. coli NCM3722 delta-hslV, growth: N-lim chemostat, doubling time 6 h
[4] = E. coli NCM3722 delta-lon, growth: N-lim chemostat, doubling time 6 h
[5] = E. coli NCM3722 delta-smpB, growth: N-lim chemostat, doubling time 6 h
[6] = wild type E. coli NCM3722, growth: C-lim chemostat, doubling time 3 h
[7] = wild type E. coli NCM3722, growth: C-lim chemostat, doubling time 6 h
[8] = wild type E. coli NCM3722, growth: C-lim chemostat, doubling time 12 h
[9] = wild type E. coli NCM3722, growth: N-lim chemostat, doubling time 6 h
[10] = wild type E. coli NCM3722, growth: N-lim chemostat, doubling time 12 h
[11] = wild type E. coli NCM3722, growth: P-lim chemostat, doubling time 6 h
[12] = wild type E. coli NCM3722, growth: P-lim chemostat, doubling time 12 h

| Sequence | total protein half-life in vivo [1] [h] | total protein half-life in vivo [2] [h] | total protein half-life in vivo [3] [h] | total protein half-life in vivo [4] [h] | total protein half-life in vivo [5] [h] | total protein half-life in vivo [6] [h] | total protein half-life in vivo [7] [h] | total protein half-life in vivo [8] [h] | total protein half-life in vivo [9] [h] | total protein half-life in vivo [10] [h] | total protein half-life in vivo [11] [h] | total protein half-life in vivo [12] [h] |
| --- | --- | --- | --- | --- | --- | --- | --- | --- | --- | --- | --- | --- |
| MQEGQNRKTSSLSILAIAGVEPYQEKPGEEYMNEAQLAHFRRILEAWRNQLRDEVDRTVTHMQDEAANFPDPVDRAAQEEEFSLELRNRDRERKLIKKIEKTLKKVEDEDFGYCESCGVEIGIRRLEARPTADLCIDCKTLAEIREKQMAG [P0ABS1] | 6.12 ± 0.34 | 6.26 ± 1.2 | 3.53 ± 0.55 | 3.95 ± 0.44 | 3.12 ± 0.035 | 1.68 ± 0.14 | 3.27 ± 0.28 | 5.07 ± 0.47 | 3.65 ± 0.58 | 7.03 ± 0.073 | 3.71 ± 0.66 | 9.06 ± 0.61 |
| MQENSPLLQLQNVGYLAGDAKILNNINFSLRAGEFKLITGPSGCGKSTLLKIVASLISPTSGTLLFEGEDVSTLKPEIYRQQVSYCAQTPTLFGDTVYDNLIFPWQIRNRQPDPAIFLDFLERFALPDSILTKNIAELSGGEKQRISLIRNLQFMPKVLLLDEITSALDESNKHNVNEMIHRYVREQNIAVLWVTHDKDEINHADKVITLQPHAGEMQEARYELA | 5.05 ± 0.21 | 5 ± 0.8 | 5.16 ± 0.41 | 4.59 ± 0.41 | 6.21 ± 1.8 | 2.7 ± 0.38 | 6.58 ± 0.68 | 9.76 | 5.2 ± 0.14 | 9.23 ± 0.8 | 5.43 ± 0.2 | 11.7 ± 1.6 |
| MQENYKILVVDDDMRLRALLERYLTEQGFQVRSVANAEQMDRLLTRESFHLMVLDLMLPGEDGLSICRRLRSQSNPMPIIMVTAKGEEVDRIVGLEIGADDYIPKPFNPRELLARIRAVLRRQANELPGAPSQEEAVIAFGKFKLNLGTREMFREDEPMPLTSGEFAVLKALVSHPREPLSRDKLMNLARGREYSAMERSIDVQISRLRRMVEEDPAHPRYIQTVWGLGYVFVPDGSKA [P0AA16] | 5.29 ± 0.46 | 6.03 ± 1.6 | 5.25 ± 0.31 | 6.35 ± 0.91 | 4.73 ± 0.46 | 3.32 ± 0.41 | 5.849 ± 0.017 | 10.3 ± 0.2 | 4.67 ± 0.22 | 8.55 ± 0.08 | 5.66 ± 0.17 | 11 ± 0.14 |
| MQFNIPTLLTLFRVILIPFFVLVFYLPVTWSPFAAALIFCVAAVTDWFDGFLARRWNQSTRFGAFLDPVADKVLVAIAMVLVTEHYHSWWVTLPAATMIAREIIISALREWMAELGKRSSVAVSWIGKVKTTAQMVALAWLLWRPNIWVEYAGIALFFVAAVLTLWSMLQYLSAARADLLDQ [P0ABF8] | 7.82 | 6.476 ± 0.013 | – | 5.76 | 5.9 | 3.1 ± 0.097 | 5.64 ± 0.51 | 15.4 | – | 9.62 ± 4.9 | 6.75 ± 1.5 | 12.1 ± 1.3 |
| MQIIFGEKCVSLLRLFFAAVLMLWCAQTAAYSGQCHTTQGNPYIGVNFGVKTLEEEANTAGVVKDKFYQWNESNDYYVSCDCDKDNVRSGRWAFAADSPLVYLGDNWYKINDYLAAKVLLQVKGSSPTAVPFENVGTGGDTRWHICDPGGQRLGGQGASGNSGSFSLKILQPFVGSVVIPPMALARLYECYNIPAGDSCTTTGTPVLVYYLSGTINSLGSCSVNAGETIEVDLGDVFAANFRVVGHKPLGARTAELAIPVRCNTGNAGLVNVNLSLTATTDPSYPQAIKTSRPGVGVVVTDSQNNIISPAGGTLPLSIPDDADSIARMNVYPVSTTGVPPETGRFEATATVRINFD | 5.52 ± 2.1 | 4.19 | 5.902 ± 0.037 | 6.21 ± 1.1 | 5.24 ± 0.2 | – | 5.54 ± 0.6 | 9.76 | 7.57 | 11.6 ± 0.54 | 6 | 12 ± 1.1 |
| MQIVMFDRQSIFIHGMKISLQQRIPGVSIQGASQADELWQKLESYPEALVMLDGDQDGEFCYWLLQKTVVQFPEVKVLITATDCNKRWLQEVIHFNVLAIVPRDSTVETFALAVNSAAMGMMFLPGDWRTTPEKDIKDLKSLSARQREILTMLAAGESNKEIGRALNISTGTVKAHLESLYRRLEVKNRTQAAMMLNISS | 4.46 | – | – | – | – | – | – | – | – | – | – | – |
| MQKAQRIIKTYRRNRMIVCTICALVTLASTLSVRFISQRNLNQQRVVQFANHAVEELDKVLLPLQAGSEVLLPLIGLPCSVAHLPLRKQAAKLQTVRSIGLVQDGTLYCSSIFGYRNVPVVDILAELPAPQPLLRLTIDRALIKGSPVLIQWTPAAGSSNAGVMEMINIDLLTAMLLEPQLPQISSASLTVDKRHLLYGNGLVDSLPQPEDNENYQVSSQRFPFTINVNGPGATALAWHYLPTQLPLAVLLSLLVGYIAWLATAYRMSFSREINLGLAQHEFELFCQPLLNARSQQCIGVEILLRWNNPRQGWISPDVFIPIAEEHHLIVPLTRYVMAETIRQRHVFPMSSQFHVGINVAPSHFRRGVLIKDLNQYWFSAHPIQQLILEITERDALLDVDYRIARELHRKNVKLAIDDFGTGNSSFSWLETLRPDVLKIDKSFTAAIGSDAVNSTVTDIIIALGQRLNIELVAEGVETQEQAKYLRRHGVHILQGYLYAQPMPLRDFPKWLAGSQPPPARHNGHITPIMPLR | 4.94 | 2.57 | – | – | – | – | – | – | – | – | – | – |
| MQKDALNNVHITDEQVLMTPEQLKAAFPLSLQQEAQIADSRKSISDIIAGRDPRLLVVCGPCSIHDPETALEYARRFKALAAEVSDSLYLVMRVYFEKPRTTVGWKGLINDPHMDGSFDVEAGLQIARKLLLELVNMGLPLATEALDPNSPQYLGDLFSWSAIGARTTESQTHREMASGLSMPVGFKNGTDGSLATAINAMRAAAQPHRFVGINQAGQVALLQTQGNPDGHVILRGGKAPNYSPADVAQCEKEMEQAGLRPSLMVDCSHGNSNKDYRRQPAVAESVVAQIKDGNRSIIGLMIESNIHEGNQSSEQPRSEMKYGVSVTDACISWEMTDALLREIHQDLNGQLTARVA | 3.13 ± 0.21 | 1.05 ± 0.12 | 0.859 ± 0.25 | 3.06 ± 3 | 0.903 ± 0.017 | 2.24 ± 0.07 | 2.79 ± 0.37 | 3.84 ± 0.57 | 0.94 | 1.81 | 1.57 | 3.5 ± 0.6 |
| MQKFDTRTFQGLILTLQDYWARQGCTIVQPLDMEVGAGTSHPMTCLRELGPEPMAAAYVQPSRRPTDGRYGENPNRLQHYYQFQVVIKPSPDNIQELYLGSLKELGMDPTIHDIRFVEDNWENPTLGAWGLGWEVWLNGMEVTQFTYFQQVGGLECKPVTGEITYGLERLAMYIQGVDSVYDLVWSDGPLGKTTYGDVFHQNEVEQSTYNFEYADVDFLFTCFEQYEKEAQQLLALENPLPLPAYERILKAAHSFNLLDARKAISVTERQRYILRIRTLTKAVAEAYYASREALGFPMCNKDK | 6.13 ± 0.15 | 6.28 ± 1.2 | 6.72 ± 0.52 | 6.54 ± 0.34 | 4.88 ± 0.31 | 3.4 ± 0.69 | 6.44 ± 0.24 | – | 6.04 ± 0.12 | – | 6.78 ± 1.4 | 13.3 ± 0.41 |
| MQKLINSVQNYAWGSKTALTELYGMENPSSQPMAELWMGAHPKSSSRVQNAAGDIVSLRDVIESDKSTLLGEAVAKRFGELPFLFKVLCAAQPLSIQVHPNKHNSEIGFAKENAAGIPMDAAERNYKDPNHKPELVFALTPFLAMNAFREFSEIVSLLQPVAGAHPAIAHFLQQPDAERLSELFASLLNMQGEEKSRALAILKSALDSQQGEPWQTIRLISEFYPEDSGLFSPLLLNVVKLNPGEAMFLFAETPHAYLQGVALEVMANSDNVLRAGLTPKYIDIPELVANVKFEAKPANQLLTQPVKQGAELDFPIPVDDFAFSLHDLSDKETTISQQSAAILFCVEGDATLWKGSQQLQLKPGESAFIAANESPVTVKGHGRLARVYNKL | 4.5 ± 0.45 | 4.28 ± 0.05 | 5.01 ± 0.19 | 4.64 ± 0.25 | 4.506 ± 0.036 | 3.03 ± 0.032 | 5.48 ± 0.18 | 10.7 ± 0.47 | 4.46 ± 0.15 | 7.24 ± 0.34 | 5.71 ± 0.53 | 10.9 ± 0.41 |
| MQKNAAHTYAISSLLVLSLTGCAWIPSTPLVQGATSAQPVPGPTPVANGSIFQSAQPINYGYQPLFEDRRPRNIGDTLTIVLQENVSASKSSSANASRDGKTNFGFDTVPRYLQGLFGNARADVEASGGNTFNGKGGANASNTFSGTLTVTVDQVLVNGNLHVVGEKQIAINQGTEFIRFSGVVNPRTISGSNTVPSTQVADARIEYVGNGYINEAQNMGWLQRFFLNLSPM [P0A6S0] | 4.87 ± 0.27 | 5.09 ± 0.14 | – | – | – | 2.82 ± 0.29 | 4.64 ± 0.58 | 7.92 ± 0.56 | 4.97 | 9.12 | 5.6 | 11.5 ± 0.65 |
| MQKQAELYRGKAKTVYSTENPDLLVLEFRNDTSAGDGARIEQFDRKGMVNNKFNYFIMSKLAEAGIPTQMERLLSDTECLVKKLDMVPVECVVRNRAAGSLVKRLGIEEGIELNPPLFDLFLKNDAMHDPMVNESYCETFGWVSKENLARMKELTYKANDVLKKLFDDAGLILVDFKLEFGLYKGEVVLGDEFSPDGSRLWDKETLEKMDKDRFRQSLGGLIEAYEAVARRLGVQLD [P0A7D7] | 4.82 ± 0.52 | 5.09 ± 0.82 | 4.79 ± 0.36 | 5.32 ± 0.32 | 4.74 ± 0.15 | 3.26 ± 0.21 | 5.98 ± 0.26 | 10.8 ± 0.71 | 4.61 ± 0.12 | 8 ± 0.35 | 5.28 ± 0.41 | 11.8 ± 0.46 |
| MQKREPVIIAPDYTDDELYEWMRQKINAAQDLKWANEARAKQAENLSALEQDITNLEKAAALSIARMITYPR | – | – | – | – | – | 3.16 | – | – | – | – | – | – |
| MQLKRVAEAKLPTPWGDFLMVGFEELATGHDHVALVYGDISGHTPVLARVHSECLTGDALFSLRCDCGFQLEAALTQIAEEGRGILLYHRQEGRNIGLLNKIRAYALQDQGYDTVEANHQLGFAADERDFTLCADMFKLLGVNEVRLLTNNPKKVEILTEAGINIVERVPLIVGRNPNNEHYLDTKAEKMGHLLNK [P0A7I7] | 4.5 ± 0.35 | 4.52 ± 0.67 | 4.48 ± 0.35 | 4.54 ± 0.19 | 4.54 ± 0.23 | 2.92 ± 0.095 | 5.1 ± 0.3 | 8.93 ± 0.54 | 4.27 ± 0.17 | 6.85 ± 0.2 | 6.08 ± 0.73 | 10.3 ± 0.8 |

From the supplement of paper PMC11246515
